Laboratory results taken from paper PMC8175363.

Biological target: unspliced Pyrococcus horikoshii PolII intein fusion protein NIHPho (N-extein M-H-A-A-K-R-N, 166-residue intein, C-extein C-D-G-D-E-D-His6) (Pyrococcus horikoshii) (UniProt O57861)
Test: crystal structure; sitting drop vapour diffusion; protein about 3 mg/ml in 20 mM Tris pH 8.0, 100 mM NaCl; reservoir 0.1 M Tris HCl pH 8.5, 1.8 M ammonium sulfate, 0.1 M sodium chloride, 1% glycerol; data at 100 K; phased by SAD with the Se-Met derivative

stoichiometry N: 2
Substance: unspliced Pyrococcus horikoshii PolII intein fusion protein NIHPho (N-extein M-H-A-A-K-R-N, 166-residue intein, C-extein C-D-G-D-E-D-His6) (from UniProt O57861 945-1123) (domain or fragment)
